Measurements reported in article PMC10602884, “Distinct RPA functions promote eukaryotic DNA replication initiation and elongation”.

T1: Gp32 (T4 bacteriophage, UniProt P03695 1-301)
T1 sequence: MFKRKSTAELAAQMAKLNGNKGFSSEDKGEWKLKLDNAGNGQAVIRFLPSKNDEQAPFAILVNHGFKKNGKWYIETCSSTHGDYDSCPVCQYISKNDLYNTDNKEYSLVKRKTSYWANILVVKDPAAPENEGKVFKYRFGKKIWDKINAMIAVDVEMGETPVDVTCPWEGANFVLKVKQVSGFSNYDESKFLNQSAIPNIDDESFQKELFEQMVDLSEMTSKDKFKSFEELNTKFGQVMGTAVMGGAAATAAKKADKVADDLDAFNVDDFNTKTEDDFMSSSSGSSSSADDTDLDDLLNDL

B1: 6-FAM-oligo-dT60 (ssDNA)
DNA: TTTTTTTTTTTTTTTTTTTTTTTTTTTTTTTTTTTTTTTTTTTTTTTTTTTTTTTTTTTT

Experiments:
Gp32 = target: T1, Gp32; test: fluorescence anisotropy; 0.5 M NaCl; apparent Kd, Hill fit; 30 mM HEPES pH 7.5, 30 mM NaCl, 0.25 mM EDTA, 10% glycerol, 0.01% NP-40, 1 mM DTT, plus 0.5 M NaCl for dT30 (no supplemental NaCl for dT60), 2.5 nM DNA, room temperature, 30 min; conditions: protein: commercial; label: 6-FAM; single strand
RPA-deltaOB-F-deltaWH = RPA-deltaOB-F-deltaWH (Saccharomyces cerevisiae, UniProt P22336;P26754;P26755 131-621;1-202;1-122); test: as above; conditions: protein: recombinant; tags: CBP on Rfa1; 3xFlag on Rfa2; copies: 1;1;1; label: 6-FAM; single strand
RPA-Tri-C (OB-C/D/E) = RPA-Tri-C (OB-C/D/E) (Saccharomyces cerevisiae, UniProt P22336;P26754;P26755 442-621;32-182;1-122); test: as above; conditions: protein: recombinant; tags: Rfa2 C-terminal MxeGyrA intein-CBD-6xHis (in expression construct); copies: 1;1;1; label: 6-FAM; single strand
EcSSB = EcSSB (Escherichia coli, UniProt P0AGE0 1-178); test: as above; conditions: protein: commercial; chain copies: 4; label: 6-FAM; single strand
[1] = target: RPA (CBP-Rfa1, Rfa2, Rfa3) (Saccharomyces cerevisiae, UniProt P22336;P26754;P26755 1-621;1-273;1-122); test: fluorescence anisotropy; 0.5 M NaCl; apparent Kd, Hill coefficient 2.460; 30 mM HEPES pH 7.5, 30 mM NaCl, 0.25 mM EDTA, 10% glycerol, 0.01% NP-40, 1 mM DTT, plus 0.5 M NaCl for dT30 (no supplemental NaCl for dT60), 2.5 nM DNA, room temperature, 30 min; conditions: protein: recombinant; tags: CBP on Rfa1; copies: 1;1;1; label: 6-FAM; single strand
Pol-alpha/primase = Pol-alpha/primase (UniProt P13382;P38121;P20457;P10363 1-1468;1-705;1-528;1-409); test: fluorescence anisotropy; DNA pre-bound with equimolar (2.5 nM) RPA-deltaOB-F (P8); matches naked DNA; 30 mM HEPES pH 7.5, 30 mM NaCl, 0.25 mM EDTA, 10% glycerol, 0.01% NP-40, 1 mM DTT, plus 0.5 M NaCl for dT30 (no supplemental NaCl for dT60), 2.5 nM DNA, room temperature, 30 min; conditions: protein: recombinant; copies: 1;1;1;1; label: 6-FAM; single strand

Sequence of RPA-Tri-C (OB-C/D/E) (P22336 442-621, chain 1 of 3): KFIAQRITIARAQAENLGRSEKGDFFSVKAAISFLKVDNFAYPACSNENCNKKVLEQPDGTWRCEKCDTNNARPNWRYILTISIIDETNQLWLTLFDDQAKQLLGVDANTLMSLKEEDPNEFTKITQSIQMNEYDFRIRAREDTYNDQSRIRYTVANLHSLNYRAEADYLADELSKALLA
Sequence of RPA-Tri-C (OB-C/D/E) (P26754 32-182, chain 2 of 3): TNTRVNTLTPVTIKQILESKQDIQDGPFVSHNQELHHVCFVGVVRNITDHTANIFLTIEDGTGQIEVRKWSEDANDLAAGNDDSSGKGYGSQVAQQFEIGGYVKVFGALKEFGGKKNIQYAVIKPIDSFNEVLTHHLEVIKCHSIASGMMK
Sequence of RPA-Tri-C (OB-C/D/E) (P26755 whole entry, chain 3 of 3): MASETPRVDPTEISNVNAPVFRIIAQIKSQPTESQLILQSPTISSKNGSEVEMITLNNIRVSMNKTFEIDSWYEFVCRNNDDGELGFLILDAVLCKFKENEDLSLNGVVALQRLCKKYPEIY
Sequence of RPA (CBP-Rfa1, Rfa2, Rfa3) (P22336 whole entry, chain 1 of 3): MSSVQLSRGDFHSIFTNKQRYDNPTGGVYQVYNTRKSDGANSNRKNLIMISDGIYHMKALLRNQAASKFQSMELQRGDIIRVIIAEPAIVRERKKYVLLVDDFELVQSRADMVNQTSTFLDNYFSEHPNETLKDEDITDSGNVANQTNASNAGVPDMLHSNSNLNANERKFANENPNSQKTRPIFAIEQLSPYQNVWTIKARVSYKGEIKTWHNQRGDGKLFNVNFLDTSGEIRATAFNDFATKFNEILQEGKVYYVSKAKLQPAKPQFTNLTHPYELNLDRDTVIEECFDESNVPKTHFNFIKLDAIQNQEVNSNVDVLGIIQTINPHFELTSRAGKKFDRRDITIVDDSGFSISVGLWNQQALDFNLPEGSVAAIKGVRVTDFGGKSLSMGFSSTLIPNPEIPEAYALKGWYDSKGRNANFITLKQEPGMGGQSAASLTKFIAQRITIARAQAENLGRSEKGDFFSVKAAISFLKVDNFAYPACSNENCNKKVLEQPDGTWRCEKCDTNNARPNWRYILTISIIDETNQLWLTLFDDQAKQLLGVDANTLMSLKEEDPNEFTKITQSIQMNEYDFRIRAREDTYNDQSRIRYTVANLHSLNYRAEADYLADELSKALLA
Sequence of RPA (CBP-Rfa1, Rfa2, Rfa3) (P26754 whole entry, chain 2 of 3): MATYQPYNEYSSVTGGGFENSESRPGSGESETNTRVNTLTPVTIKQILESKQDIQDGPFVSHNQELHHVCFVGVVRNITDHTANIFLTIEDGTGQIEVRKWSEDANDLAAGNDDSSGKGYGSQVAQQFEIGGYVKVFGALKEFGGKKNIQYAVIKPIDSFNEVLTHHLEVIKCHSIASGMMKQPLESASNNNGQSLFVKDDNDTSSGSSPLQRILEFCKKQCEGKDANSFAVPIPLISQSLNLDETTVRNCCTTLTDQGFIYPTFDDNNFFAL
Sequence of RPA (CBP-Rfa1, Rfa2, Rfa3) (P26755 whole entry, chain 3 of 3): as the sequence (P26755 whole entry, chain 3 of 3) above
Sequence of RPA-deltaOB-F-deltaWH (P22336 131-621, stated change not applied, chain 1 of 3): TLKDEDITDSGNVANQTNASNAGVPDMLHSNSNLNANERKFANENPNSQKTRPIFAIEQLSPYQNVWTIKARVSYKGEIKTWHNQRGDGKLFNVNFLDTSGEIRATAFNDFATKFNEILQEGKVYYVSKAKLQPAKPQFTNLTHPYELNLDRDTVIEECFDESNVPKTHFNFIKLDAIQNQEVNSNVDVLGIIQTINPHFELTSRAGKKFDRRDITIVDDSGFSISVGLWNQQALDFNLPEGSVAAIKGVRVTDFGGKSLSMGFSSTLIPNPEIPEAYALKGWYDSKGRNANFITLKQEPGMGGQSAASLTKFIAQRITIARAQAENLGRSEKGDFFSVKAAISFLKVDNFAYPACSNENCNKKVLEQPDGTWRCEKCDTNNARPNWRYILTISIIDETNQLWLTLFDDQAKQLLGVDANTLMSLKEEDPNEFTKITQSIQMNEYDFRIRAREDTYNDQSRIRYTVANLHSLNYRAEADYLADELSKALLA
Sequence of RPA-deltaOB-F-deltaWH (P26754 1-202, stated change not applied, chain 2 of 3): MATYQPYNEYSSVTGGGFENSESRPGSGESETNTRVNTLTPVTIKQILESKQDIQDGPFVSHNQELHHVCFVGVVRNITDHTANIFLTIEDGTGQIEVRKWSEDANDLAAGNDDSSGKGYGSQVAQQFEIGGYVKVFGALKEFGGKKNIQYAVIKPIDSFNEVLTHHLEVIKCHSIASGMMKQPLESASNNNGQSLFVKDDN
Sequence of RPA-deltaOB-F-deltaWH (P26755 whole entry, stated change not applied, chain 3 of 3): as the sequence (P26755 whole entry, chain 3 of 3) above
Sequence of EcSSB (P0AGE0 whole entry): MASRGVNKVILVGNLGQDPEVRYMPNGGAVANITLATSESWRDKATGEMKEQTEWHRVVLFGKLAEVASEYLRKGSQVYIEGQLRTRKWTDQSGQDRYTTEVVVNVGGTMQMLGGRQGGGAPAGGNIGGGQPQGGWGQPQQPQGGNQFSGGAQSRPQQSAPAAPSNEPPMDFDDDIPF

Row | Binder | Kd (Gp32) [nM] | Kd (RPA-deltaOB-F-deltaWH) [nM] | Kd (RPA-Tri-C (OB-C/D/E)) [nM] | Kd (EcSSB) [nM] | Kd [1] [nM] | binding result (Pol-alpha/primase)
1 | TTTTTTTTTTTTTTTTTTTTTTTTTTTTTT (ssDNA) [6-FAM-oligo-dT30] | ~18 | ~2.04 | ~2.97 | ~0.11 | 1.73 | 
2 | B1 |  |  |  |  |  | binds
